Results as given in PMC2756588.

T1: Bud14, P27637
T1 sequence (P27637 247-328, looked up): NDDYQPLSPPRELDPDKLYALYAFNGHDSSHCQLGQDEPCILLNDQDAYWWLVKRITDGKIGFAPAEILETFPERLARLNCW

T2: Boi2, P39969
T2 sequence (P39969 32-116, looked up): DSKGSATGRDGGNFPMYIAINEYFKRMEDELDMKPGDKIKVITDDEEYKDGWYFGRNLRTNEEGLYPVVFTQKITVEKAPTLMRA

T3: Sla1-3, P32790
T3 sequence (P32790 344-424, looked up): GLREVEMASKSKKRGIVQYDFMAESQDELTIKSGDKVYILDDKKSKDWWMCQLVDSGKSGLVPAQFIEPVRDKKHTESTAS

T4: Sla1-2, P32790
T4 sequence (P32790 60-140, looked up): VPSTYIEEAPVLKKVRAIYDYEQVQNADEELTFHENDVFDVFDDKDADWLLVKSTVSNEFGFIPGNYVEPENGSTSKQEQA

T5: Cyk3, Q07533
T5 sequence (Q07533 1-83, looked up): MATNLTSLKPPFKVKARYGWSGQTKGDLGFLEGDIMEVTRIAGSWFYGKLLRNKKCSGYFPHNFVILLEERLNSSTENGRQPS

T6: Abp1, P15891
T6 sequence (P15891 535-592, looked up): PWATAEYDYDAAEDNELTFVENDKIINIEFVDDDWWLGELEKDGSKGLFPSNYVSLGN

T7: Bzz1-1, P38822
T7 sequence (P38822 478-572, looked up): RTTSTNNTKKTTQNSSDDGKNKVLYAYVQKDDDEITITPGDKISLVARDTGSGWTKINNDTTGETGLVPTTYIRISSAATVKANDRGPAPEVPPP

T8: Pin3, Q06449
T8 sequence (Q06449 53-122, looked up): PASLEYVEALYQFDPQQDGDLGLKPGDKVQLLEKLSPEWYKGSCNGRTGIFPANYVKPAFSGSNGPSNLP

T9: Boi1, P38041
T9 sequence (P38041 1-86, looked up): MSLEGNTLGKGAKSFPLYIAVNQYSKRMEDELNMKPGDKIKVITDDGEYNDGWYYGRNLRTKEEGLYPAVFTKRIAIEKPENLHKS

T10: Hof1, Q05080
T10 sequence (Q05080 590-669, looked up): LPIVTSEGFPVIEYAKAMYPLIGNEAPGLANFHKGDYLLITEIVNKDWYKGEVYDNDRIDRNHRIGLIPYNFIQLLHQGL

T11: Myo5, Q04439
T11 sequence (Q04439 1072-1160, looked up): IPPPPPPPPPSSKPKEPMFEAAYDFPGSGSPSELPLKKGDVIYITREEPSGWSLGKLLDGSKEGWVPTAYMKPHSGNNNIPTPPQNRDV

T12: Lsb1, P53281
T12 sequence (P53281 45-122, looked up): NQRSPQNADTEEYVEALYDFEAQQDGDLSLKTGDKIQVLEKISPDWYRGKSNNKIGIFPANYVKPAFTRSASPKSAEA

T13: Cdc25, P04821
T13 sequence (P04821 50-136, looked up): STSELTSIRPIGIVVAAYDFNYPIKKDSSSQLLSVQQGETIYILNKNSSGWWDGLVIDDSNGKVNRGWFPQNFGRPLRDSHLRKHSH

T14: Pex13, P80667
T14 sequence (P80667 295-386, looked up): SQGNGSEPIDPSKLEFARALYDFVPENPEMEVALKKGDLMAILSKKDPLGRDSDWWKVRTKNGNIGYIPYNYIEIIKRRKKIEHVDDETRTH

T15: Bzz1-2, P38822
T15 sequence (P38822 568-633, looked up): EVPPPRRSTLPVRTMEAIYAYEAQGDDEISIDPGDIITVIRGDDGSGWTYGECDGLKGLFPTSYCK

T16: Lsb4, P32793
T16 sequence (P32793 402-468, looked up): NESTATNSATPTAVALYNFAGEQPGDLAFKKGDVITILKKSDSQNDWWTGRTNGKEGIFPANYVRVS

T17: Nbp2, Q12163
T17 sequence (Q12163 103-180, looked up): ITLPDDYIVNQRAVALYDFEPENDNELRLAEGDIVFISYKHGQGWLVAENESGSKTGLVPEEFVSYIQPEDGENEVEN

T18: Bbc1, P47068
T18 sequence (P47068 1-78, looked up): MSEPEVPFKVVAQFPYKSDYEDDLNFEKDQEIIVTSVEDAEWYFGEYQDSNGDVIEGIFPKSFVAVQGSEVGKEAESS

T19: Lsb3, P43603
T19 sequence (P43603 385-451, looked up): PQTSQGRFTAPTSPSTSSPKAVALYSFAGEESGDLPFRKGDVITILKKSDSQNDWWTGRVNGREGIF

T20: Fus1, P11710
T20 sequence (P11710 432-512, looked up): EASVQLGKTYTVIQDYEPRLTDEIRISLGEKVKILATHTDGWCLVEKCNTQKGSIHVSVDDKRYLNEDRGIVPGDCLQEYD

T21: Hse1, P38753
T21 sequence (P38753 208-285, looked up): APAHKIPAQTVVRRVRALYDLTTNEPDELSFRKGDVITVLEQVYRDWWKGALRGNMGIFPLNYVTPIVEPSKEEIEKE

B1: unnamed (peptide)
chain: IRMPSNPALPKKLLN
B2: unnamed (peptide)
chain: VFQFQMPTTPISTKM
B3: unnamed (peptide)
chain: QTMRQAPKRPDADVA

molecular target: T1, Bud14, P27637; test: SPOT array; conditions: median of control spots 956

SPOT intensity	Binder
1	B1
0	B2
0	B3

molecular target: T2, Boi2, P39969; test: SPOT array; conditions: median of control spots 1161

SPOT intensity	Binder
2	B1
0	B2
0	B3

molecular target: T3, Sla1-3, P32790; test: SPOT array; conditions: median of control spots 5475

SPOT intensity	Binder
0	B1
0	B2
42	B3

molecular target: Sho1, P40073; test: SPOT array; conditions: median of control spots 1148
Sequence (P40073 287-367): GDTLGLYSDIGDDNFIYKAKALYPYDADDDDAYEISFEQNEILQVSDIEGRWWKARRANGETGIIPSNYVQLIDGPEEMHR

SPOT intensity	Binder
79	B1
46	B2
21	B3

molecular target: T4, Sla1-2, P32790; test: SPOT array; conditions: median of control spots 712

SPOT intensity	Binder
18	B1
7	B2
19	B3

molecular target: T5, Cyk3, Q07533; test: SPOT array; conditions: median of control spots 1451

SPOT intensity	Binder
0	B1
0	B2
0	B3

molecular target: T6, Abp1, P15891; test: SPOT array; conditions: median of control spots 935

SPOT intensity	Binder
231	B1
32	B2
81	B3

molecular target: T7, Bzz1-1, P38822; test: SPOT array; conditions: median of control spots 4446

SPOT intensity	Binder
0	B1
1	B2
0	B3

molecular target: GST; test: SPOT array; conditions: median of control spots 978

SPOT intensity	Binder
0	B1
0	B2
1	B3

molecular target: T8, Pin3, Q06449; test: SPOT array; conditions: median of control spots 2171

SPOT intensity	Binder
115	B1
125	B2
61	B3

molecular target: T9, Boi1, P38041; test: SPOT array; conditions: median of control spots 1162

SPOT intensity	Binder
0	B1
0	B2
0	B3

molecular target: T10, Hof1, Q05080; test: SPOT array; conditions: median of control spots 4086

SPOT intensity	Binder
6	B1
0	B2
0	B3

molecular target: T11, Myo5, Q04439; test: SPOT array; conditions: median of control spots 471

SPOT intensity	Binder
81	B1
74	B2
103	B3

molecular target: Myo3, P36006; test: SPOT array; conditions: median of control spots 468

SPOT intensity	Binder
72	B1
32	B2
44	B3

molecular target: T12, Lsb1, P53281; test: SPOT array; conditions: median of control spots 388

SPOT intensity	Binder
47	B1
1	B2
211	B3

molecular target: T13, Cdc25, P04821; test: SPOT array; conditions: median of control spots 969

SPOT intensity	Binder
4	B1
0	B2
0	B3

molecular target: T14, Pex13, P80667; test: SPOT array; conditions: median of control spots 1341

SPOT intensity	Binder
352	B1
219	B2
73	B3

molecular target: T15, Bzz1-2, P38822; test: SPOT array; conditions: median of control spots 4538

SPOT intensity	Binder
2	B1
0	B2
28	B3

molecular target: T16, Lsb4, P32793; test: SPOT array; conditions: median of control spots 397

SPOT intensity	Binder
56	B1
39	B2
115	B3

molecular target: T17, Nbp2, Q12163; test: SPOT array; conditions: median of control spots 357

SPOT intensity	Binder
15	B1
3	B2
989	B3

molecular target: Bem1-1, P29366; test: SPOT array; conditions: median of control spots 4282
Sequence (P29366 55-141): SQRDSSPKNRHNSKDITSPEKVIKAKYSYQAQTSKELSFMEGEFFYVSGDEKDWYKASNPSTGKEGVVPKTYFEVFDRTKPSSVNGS

SPOT intensity	Binder
0	B1
0	B2
1	B3

molecular target: T18, Bbc1, P47068; test: SPOT array; conditions: median of control spots 796

SPOT intensity	Binder
2	B1
0	B2
90	B3

molecular target: T19, Lsb3, P43603; test: SPOT array; conditions: median of control spots 406

SPOT intensity	Binder
53	B1
14	B2
60	B3

molecular target: Rvs167, P39743; test: SPOT array; conditions: median of control spots 2707
Sequence (P39743 419-482): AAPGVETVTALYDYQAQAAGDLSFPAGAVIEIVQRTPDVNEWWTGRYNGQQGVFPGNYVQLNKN

SPOT intensity	Binder
0	B1
0	B2
10	B3

molecular target: Bem1-2, P29366; test: SPOT array; conditions: median of control spots 4347
Sequence (P29366 139-227): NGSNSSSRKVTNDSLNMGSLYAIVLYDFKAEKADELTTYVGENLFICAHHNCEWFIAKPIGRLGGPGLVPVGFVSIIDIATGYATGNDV

SPOT intensity	Binder
0	B1
5	B2
65	B3

molecular target: T20, Fus1, P11710; test: SPOT array; conditions: median of control spots 1200

SPOT intensity	Binder
0	B1
0	B2
0	B3

molecular target: T21, Hse1, P38753; test: SPOT array; conditions: median of control spots 1727

SPOT intensity	Binder
16	B1
0	B2
1	B3
